Test results taken from US20210340217A1, “NOVEL PEPTIDES AND COMBINATION OF PEPTIDES FOR USE IN IMMUNOTHERAPY AGAINST OVARIAN CANCER AND OTHER CANCERS” (Immatics Biotechnologies GmbH, priority 2017, published 2021).

biological target: HLA-B*44:02 (Homo sapiens, UniProt P01889, A223V/A65T/A93T/A95T/D201E/D98Y/E176V/E187L/E204Q/E69K/G107R/H137Y/K202T/L105A/L119I/N104T/N87E/Q56L/Q94N/R106L/R155S/R180D/S101N/S121R/S35A/S48T/T118I/V36M/W191S/Y140D/Y91S); assay: MHC binding assay (UV-ligand exchange, beta2m ELISA); conditions: peptide exchange yield
Summary of the method: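 Peptide–MHC complexes formed by UV-induced exchange of a UV-cleavable peptide for the test peptide. Exchange yield measured by streptavidin-capture ELISA detecting β2m (HRP anti-β2m, TMB, A450) on 100-fold diluted samples. Quantified against refolded HLA-A*02:01/MLA-001 standards (15-500 ng/ml).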

Substance | Peptide exchange
201 (AETILTFHAF; listed as Homo sapiens) [compound 201] | “+++” (>50 = +++)
198 (QEAARAAL; listed as Homo sapiens) [compound 198] | “++” (>20% = ++)
425 (SEVPLPMAI; listed as Homo sapiens) [compound 425] | “+++” (>50 = +++)
176 (AEIEPKADGSW; listed as Homo sapiens) [compound 176] | “+++” (>50 = +++)
178 (NELFRDGVNW; listed as Homo sapiens) [compound 178] | “+++” (>50 = +++)
193 (LEAQQEAL; listed as Homo sapiens) [compound 193] | “++” (>20% = ++)
406 (EDGRLVIEF; listed as Homo sapiens) [compound 406] | “+” (>10% = +)
202 (HESEATASW; listed as Homo sapiens) [compound 202] | “+++” (>50 = +++)
414 (EDAALFKAW; listed as Homo sapiens) [compound 414] | “++” (>20% = ++)
400 (GEIEIHLL; listed as Homo sapiens) [compound 400] | “+” (>10% = +)
199 (REIDESLIFY; listed as Homo sapiens) [compound 199] | “+++” (>50 = +++)
179 (REAGDEFEL; listed as Homo sapiens) [compound 179] | “++” (>20% = ++)
208 (TEVSRTEAI; listed as Homo sapiens) [compound 208] | “++” (>20% = ++)
423 (SEVPTGTTA; listed as Homo sapiens) [compound 423] | “++” (>20% = ++)
434 (KEAIREHQM; listed as Homo sapiens) [compound 434] | “++” (>20% = ++)
399 (RELLHLVTL; listed as Homo sapiens) [compound 399] | “+++” (>50 = +++)
421 (GEPATTVSL; listed as Homo sapiens) [compound 421] | “++” (>20% = ++)

Substance | Peptide exchange
56 (SEPDTTASW; listed as Homo sapiens) [compound 56] | “+++” (>50 = +++)
411 (LELPPILVY; listed as Homo sapiens) [compound 411] | “+” (>10% = +)
54 (AEITITTQTGY; listed as Homo sapiens) [compound 54] | “+++” (>50 = +++)
435 (REEFVSIDHL; listed as Homo sapiens) [compound 435] | “++” (>20% = ++)
409 (REFVLSKGDAGL; listed as Homo sapiens) [compound 409] | “+++” (>50 = +++)
57 (QESDLRLFL; listed as Homo sapiens) [compound 57] | “+++” (>50 = +++)
429 (REKFIASVI; listed as Homo sapiens) [compound 429] | “++” (>20% = ++)
206 (SESVTSRTSY; listed as Homo sapiens) [compound 206] | “+++” (>50 = +++)
426 (PEKTTHSF; listed as Homo sapiens) [compound 426] | “+” (>10% = +)
184 (AELEALTDLW; listed as Homo sapiens) [compound 184] | “+++” (>50 = +++)
204 (RETSTSEETSL; listed as Homo sapiens) [compound 204] | “+++” (>50 = +++)
416 (SEEETRVVF; listed as Homo sapiens) [compound 416] | “+++” (>50 = +++)
214 (VEQTRAGSLL; listed as Homo sapiens) [compound 214] | “++” (>20% = ++)
185 (AERQPGAASL; listed as Homo sapiens) [compound 185] | “++” (>20% = ++)
53 (MEHPGKLLF; listed as Homo sapiens) [compound 53] | “+++” (>50 = +++)
182 (KEATEAQSL; listed as Homo sapiens) [compound 182] | “+++” (>50 = +++)
